According to PMC2944808:
Where two headings read alike, the source gives them in different places.

What was measured:
[1] = target: Chordin, full-length, mouse (mouse) (UniProt Q9Z0E2); test: SPR; BIAcore 2000; Chordin immobilised, CV2 proteins perfused; apparent KD from koff/kon; 6 to 9 analyte concentrations, at least three independent experiments
[2] = target: BMP2 (Homo sapiens) (UniProt P12643); test: SPR; BIAcore 2000; BMP2 immobilised, CV2 proteins perfused; apparent KD from koff/kon; 6 to 9 analyte concentrations, at least three independent experiments
[3] = target: VWC2 domain of Chordin, mouse (mouse); test: SPR; BIAcore 2000; VWC2 domain of Chordin immobilised, CV2 proteins perfused; apparent KD from koff/kon; 6 to 9 analyte concentrations, at least three independent experiments
[4] = target: BMP2 (Homo sapiens) (UniProt P12643); conditions: cited from earlier work
[5] = target: Crossveinless-2 (CV2), full-length, zebrafish (zebrafish); test: SPR; BIAcore 2000; CV2 immobilised on the chip (legend of Figure 1E: CV2-N), Chordin (50-600 nM) or Chordin VWC2 (10-120 nM) in solution; apparent KD

Chordin, full-length, mouse (mouse), sequence (Q9Z0E2 27-948): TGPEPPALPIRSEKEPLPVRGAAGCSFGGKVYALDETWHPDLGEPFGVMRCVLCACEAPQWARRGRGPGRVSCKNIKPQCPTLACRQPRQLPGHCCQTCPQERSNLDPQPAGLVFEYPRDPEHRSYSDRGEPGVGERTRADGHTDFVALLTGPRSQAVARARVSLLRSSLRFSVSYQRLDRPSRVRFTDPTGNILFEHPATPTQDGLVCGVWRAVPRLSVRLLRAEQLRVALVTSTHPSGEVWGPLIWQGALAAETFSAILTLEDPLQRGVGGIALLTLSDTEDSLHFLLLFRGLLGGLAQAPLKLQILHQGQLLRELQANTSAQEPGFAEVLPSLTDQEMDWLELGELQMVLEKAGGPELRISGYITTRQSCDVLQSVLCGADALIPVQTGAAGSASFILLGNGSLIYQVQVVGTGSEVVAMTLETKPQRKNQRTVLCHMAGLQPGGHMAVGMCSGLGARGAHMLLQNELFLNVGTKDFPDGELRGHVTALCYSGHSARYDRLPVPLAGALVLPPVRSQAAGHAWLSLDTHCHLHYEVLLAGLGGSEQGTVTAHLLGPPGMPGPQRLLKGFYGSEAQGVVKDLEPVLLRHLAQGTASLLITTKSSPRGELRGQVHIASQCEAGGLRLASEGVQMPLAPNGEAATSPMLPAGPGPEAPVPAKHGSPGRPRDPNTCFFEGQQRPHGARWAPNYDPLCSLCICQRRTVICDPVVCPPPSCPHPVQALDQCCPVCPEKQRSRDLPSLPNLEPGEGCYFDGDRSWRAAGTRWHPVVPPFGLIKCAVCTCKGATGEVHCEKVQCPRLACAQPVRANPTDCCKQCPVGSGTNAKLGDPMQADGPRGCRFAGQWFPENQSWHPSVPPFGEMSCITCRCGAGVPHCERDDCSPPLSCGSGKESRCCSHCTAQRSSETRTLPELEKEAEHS
BMP2 (Homo sapiens), sequence (P12643 283-396): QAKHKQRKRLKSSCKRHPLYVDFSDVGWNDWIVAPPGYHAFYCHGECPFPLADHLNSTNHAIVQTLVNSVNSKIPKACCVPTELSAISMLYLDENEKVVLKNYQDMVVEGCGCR
Chordin, sequence (Q9H2X0 27-955): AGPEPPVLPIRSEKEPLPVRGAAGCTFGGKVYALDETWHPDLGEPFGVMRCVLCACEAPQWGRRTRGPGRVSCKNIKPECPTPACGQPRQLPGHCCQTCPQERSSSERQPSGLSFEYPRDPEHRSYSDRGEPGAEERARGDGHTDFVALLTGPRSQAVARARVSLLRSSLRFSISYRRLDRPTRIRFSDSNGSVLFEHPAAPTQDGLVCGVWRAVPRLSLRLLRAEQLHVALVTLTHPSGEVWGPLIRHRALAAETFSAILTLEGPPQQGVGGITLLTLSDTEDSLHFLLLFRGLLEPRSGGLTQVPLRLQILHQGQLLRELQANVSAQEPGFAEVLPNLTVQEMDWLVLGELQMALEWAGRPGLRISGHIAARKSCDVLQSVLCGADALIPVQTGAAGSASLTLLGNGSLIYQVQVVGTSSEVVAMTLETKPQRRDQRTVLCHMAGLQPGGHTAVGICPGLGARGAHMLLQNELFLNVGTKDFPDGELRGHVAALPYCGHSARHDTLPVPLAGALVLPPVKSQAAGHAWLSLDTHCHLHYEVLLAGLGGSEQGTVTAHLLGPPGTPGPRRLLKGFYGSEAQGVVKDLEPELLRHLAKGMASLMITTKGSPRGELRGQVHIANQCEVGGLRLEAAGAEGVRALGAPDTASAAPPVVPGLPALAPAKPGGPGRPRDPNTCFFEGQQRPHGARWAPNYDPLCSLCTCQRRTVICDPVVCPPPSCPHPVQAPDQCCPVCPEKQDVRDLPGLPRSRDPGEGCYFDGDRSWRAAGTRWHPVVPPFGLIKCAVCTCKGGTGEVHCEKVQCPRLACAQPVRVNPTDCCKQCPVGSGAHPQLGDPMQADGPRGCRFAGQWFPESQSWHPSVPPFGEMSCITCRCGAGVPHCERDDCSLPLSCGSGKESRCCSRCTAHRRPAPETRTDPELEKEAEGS

Substance	Kd [1]	Kd [2]	Kd [3]	Kd [4]	Kd [5]
CV2 T5P/I21R (natural protein)	183 nM	18000 nM	172 nM		
CV2 ΔClip-SD1 (domain or fragment)	188 nM		170 nM		
CV2 ΔSD2 (domain or fragment)		22 nM			
CV2-VWC1-3 (domain or fragment)		24 nM			
CV2-VWC1-5 (CV2-N) (domain or fragment)	170 nM	25 nM	140 nM		
Chordin (from UniProt Q9H2X0)				20 nM	
Crossveinless-2 (CV2), full-length, zebrafish (natural protein)	175 nM	22 nM	150 nM		
VWC2 domain of Chordin, mouse (domain or fragment)					5 nM
